Consider 30 sequences from the nanobody polyreactivity screen of Harvey et al. (2022).

The data set in a line: yeast display, Sf9 membrane polyspecificity reagent, FACS + sequencing; frameworks hold sequencing errors. The procedure, abridged:
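Nanobodies came from a synthetic yeast display library in Saccharomyces cerevisiae BJ5465, induced with galactose for 36–48 hours and stained for 1 hour at 4 °C with 10% biotinylated, detergent-solubilized Sf9 membrane reagent. Cells were enriched on streptavidin microbeads and then FACS-sorted, with low and high (top ~1%) gates set on anti-HA fluorescence for expression and streptavidin fluorescence for reagent binding. Each polyreactivity label reflects the gate a clone came from. Genes were amplified by colony PCR, sequenced by MiSeq 2 × 250 and filtered by CDR length.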
Turning to “QVQILESGGGLVQAGGSLRLSCAASGRIFGGYAMGWYRQAPGKERELVAAIRWRGGRTYYADSVKGRFTISRDNAKNTVYLQMNSLKPEDTAVYYCAADYSFTGHRYTYGYWGQGTQVTVSS”, the “polyreactivity (PSR sort gate)” value was “high polyreactivity”.

On to “QVQILESGVGLVQPGGSLRLICAASGITLQFYALGWYRKATGKEAELVAAISISGGRTYYADSVKGRFTISRDNAKNTFYLQMNSLKPEDTAVYYCAAYLQRAYRYGYWGQGTQVTVSS”, for which the “polyreactivity (PSR sort gate)” value is “high polyreactivity”.

Turning to “QVQILETGGGLVQAGGSLSLSCAASGSIFYSNAMGWYRQAPGKESEIVAAISAGGGSTYYADSVKGRFTISRDNAINTVYLQMNSLKPEDTAVYYCAAQPYKIIYPYDYWGQGTQVTVSS”, the “polyreactivity (PSR sort gate)” value was “low polyreactivity”.

As for “QVQIVDSGGGLVQAGGSLRLSCAASGRTFNYYAKGWYRQAPGKERQLVAAISKSGGSTYYADSVKGRFTISRDNEKNTVYLQMNSLKPEETAVYYCAALTTHAPHSYNYWGQGTQVTVSS”, the “polyreactivity (PSR sort gate)” value is “low polyreactivity”.

Take “QVQIVESGAGLVQAGGSLRLSCAPSGRIFVTNAMGWYRQSPGKERELGAAITSGGSTYYADSVKGRFTISRDNAKNNVYLQMNSLKPEDTAVFYCARPVFSQRYVTTRYDYWGQGTQVTVSS”: the “polyreactivity (PSR sort gate)” value is listed as “low polyreactivity”.

For the sequence “QVQIVESGARLVQAGGSLRLSCAASGRTFYAYAMGWYTQAPGKDREYFASIRLRGGSTYYADSVKGRFTISRDNAKNTVYLQMHSLKPEDTAVYYGNAFYGGSSSYWYYSWGQGTQVTVSS”, the “polyreactivity (PSR sort gate)” value is “high polyreactivity”.

On to “QVQIVESGGGIVQAGGSLRLSCAASGFIFVFNAMGWNRKAPGKERELVAAINGGDNTNYADSVKGRFTISRDNAKNTVYLQINSLKPEDTAVYYCAAEGEDSMWTGYDYDYWGQGTQVTVSS”, for which the “polyreactivity (PSR sort gate)” value is “low polyreactivity”.

Regarding “QVQIVESGGGIVQAGGSLRLSCAASGRTLQTYVMGWYRQSPGKEREWVAAITRGGGSTYYADSVKGRFTISRDNAKNTVYLQMNSLKPEDTAVYYCAASALRFNSSFSHWYNYWGQGTQVTVSS”, the “polyreactivity (PSR sort gate)” value is “high polyreactivity”.

On to “QVQIVESGGGIVQAGVSLRLICAASGFTFIDNTMGWYRQAPGKERELVAAISSDGRTNYADSVKGRFTISRDNAKNNVYLQKNSLKPEYTAVYYCASEDYYWYVTGDLYHTAVYYWGQGTQVTVSS”, for which the “polyreactivity (PSR sort gate)” value is reported as “low polyreactivity”.

In the case of “QVQIVESGGGLFQAGGSLRLSCAASGRIFDPYSMGWYRQAPGKERELVASISWSGGRTYYADSVKGRFTISRDNAKNTVYLQMNSLKPEDTAVYYCARRFYKGTSKTNLFDFWGQVTQVTVSS”, the “polyreactivity (PSR sort gate)” value is “high polyreactivity”.

Regarding “QVQIVESGGGLLQAGGSLRLSCAASGRIFRRNAMGWYRQATGKERELVAAISKSGGSTYYADSVKGRFTISRDNAKNTVYLQMNSLKPEDTAVYYCAAEYSDRYDYWGQGTQVTVSS”, the “polyreactivity (PSR sort gate)” value is recorded as “high polyreactivity”.

As for “QVQIVESGGGLVDAGGSLRLSCAASGRTFPPYAMGWYRQAPGKERELVAAISGSGASTYYADSVKGRFTISRDNAKNTVKLQWISQKPEDTAVYSWARYRGYWGRYYGVHYGYWGQGTQVTVSS”, the “polyreactivity (PSR sort gate)” value was “high polyreactivity”.

On to “QVQIVESGGGLVQAAGSLRLSCPASGRIFSDYAMGWYRQAPGKERELVAVITRGGDNTHYADSVKGRFTISRDNAKNTVYFQMNSLKPEDTAVYYCAAGFVYFRLRRYFWRDYWGQGTQVTVSS”, for which the “polyreactivity (PSR sort gate)” value is given as “low polyreactivity”.

As for “QVQIVESGGGLVQAGASLRLSCAASGLIFPQKVMGWYIQAPGNERVLVAAISSGTITNYADSVKGRFTISRDNAKNSVYLQMNSLKPEDTADYFCAAEEDKKTFDYWGQGTQVTVSS”, the “polyreactivity (PSR sort gate)” value was “low polyreactivity”.

Turning to “QVQIVESGGGLVQAGATLRLSCDASGITIEGYAMGWYRQAPGKERELVAAIRSSGTSTYYADSVKGRFTITRDFAKNTVYLQMNSLKPEDTAVYYCNRARSSSRYDYWGQGTQVTVSS”, the “polyreactivity (PSR sort gate)” value is “low polyreactivity”.

Consider “QVQIVESGGGLVQAGCSLRISCAASGRTFYRYAMGWYRQAPGKEREFVAAISWRGGSTRYADSVKGRFTISRDNAKNTVYLQLNSLKPEVTAVYYCNADPQRSVSYTDQYRPVWYGYWGQGTQVTVSS”, for which the “polyreactivity (PSR sort gate)” value is listed as “high polyreactivity”.

With “QVQIVESGGGLVQAGGILRLSCAASGNTFGYYAMGWYRQAPGKEWELVAAISRGGGSTYYADSVKGRFTISRDNAKNTVYLQMNRLKPEDTAVYYCARRYRLSTSWSYRVGYWGQGTQVTVSS”, the “polyreactivity (PSR sort gate)” value was “high polyreactivity”.

For “QVQIVESGGGLVQAGGSLRFSCADSGFTFYSYAIVWYRQAPGKERELVAAISWSGGSTYYADSVKGRFTISRDNAKNTVYLQMNSLKPEDTAVYFCNAPYIGEHYYWGQGTQVTVSS”, the “polyreactivity (PSR sort gate)” value was “high polyreactivity”.

Consider “QVQIVESGGGLVQAGGSLRISCAASGLIYSSYGMGWYRQAPGKERELVAAISSGGSTYYADSVKGRFSISRDNAKNTVYLQKKSLKPEDTAVYYCADGVLYPYWYSTYYPDCQYYYWGHGTQVTVSS”, for which the “polyreactivity (PSR sort gate)” value was “low polyreactivity”.

In the case of “QVQIVESGGGLVQAGGSLRISCAASGRTFSWNPMGWYRQAPGKERELVAGITGRGRSTYYADSVKGRFTISRDNAKLTVYLQMNSLTPEDTAVYYCAADSYRSSSPYGYWGQGTQVTVSS”, the “polyreactivity (PSR sort gate)” value is given as “high polyreactivity”.

As to “QVQIVESGGGLVQAGGSLRISCSASGRTLRSYAMGWYRHAPGKERELVAAISRSGGSTNYADSVKGRFTISHDNAKNTVYLQMNSLKPEETAVYYCNTYSTSWKMDYWGQGTKVTVSS”, the “polyreactivity (PSR sort gate)” value was “high polyreactivity”.

With “QVQIVESGGGLVQAGGSLRLSCAASGFIFGANAMGWYRQAPGKEREFVAAISSSGGRYELRRSVKGRFTISRDKAKNTVYLQMNSLKPEDTAVYYCATPYPTGRPRHYYWGQGTQVTVSS”, the “polyreactivity (PSR sort gate)” value is “high polyreactivity”.

As to “QVQIVESGGGLVQAGGSLRLSCAASGFTIPRYAMGWYRQAPGKERELVAAISRAGRTYYADSVKGRFTISRDNAKNTVYLLMTSLKPEDTAVYYCNSQYLKPGDYWGHGTQVTVSS”, the “polyreactivity (PSR sort gate)” value is on record as “high polyreactivity”.

In the case of “QVQIVESGGGLVQAGGSLRLSCAASGFTSQFYAMGWYRQAPGKEMELVAAISSGSSTYYADSVKGRFTSSRDNAKNTVYLQMNSLKPEDTAVYYCATTHKTLRRYDSWGQGTKVTVSS”, the “polyreactivity (PSR sort gate)” value is listed as “low polyreactivity”.

Consider “QVQIVESGGGLVQAGGSLRLSCAASGIIFYRYAMGWSRQAPGKERELVAAITWSGVSTSYADSVKGRFTISRDNAKNTVYLQMNSLKPEVTAVYDCNKDPGTLYGDMDSWGQGTQVSVSS”, for which the “polyreactivity (PSR sort gate)” value was “low polyreactivity”.

On to “QVQIVESGGGLVQAGGSLRLSCAASGITLSYNAMGWYRPATEKDRELVAGISYSGGRTYYADSVKGRFTISRDNAKNTVYLQMYSLKPEVTAVYYCATDLYISFRYGGYFWGQGTQVTVSS”, for which the “polyreactivity (PSR sort gate)” value is “high polyreactivity”.

As to “QVQIVESGGGLVQAGGSLRLSCAASGLTFILYAMGWYRQAPGKERELVAAISYDGGSTYYADSVKGRFTISRDNAKNTVYLQMNSLKPEDTAVYYCAADSYYYQGYRRYNYDYWGQGTQVTVSS”, the “polyreactivity (PSR sort gate)” value is given as “high polyreactivity”.

For the sequence “QVQIVESGGGLVQAGGSLRLSCAASGRIFIRYSMGWYRHAPGIERELVAAISSGGRTYYADSVKGRFTISRDNATNTVYLQMNSLNPEDTAVYYCARASSIARYDNWGQGTQVTVSS”, the “polyreactivity (PSR sort gate)” value was “high polyreactivity”.

Regarding “QVQIVESGGGLVQAGGSLRLSCAASGRIFRRYVMGWYRPAPGKERELVAAITKSGTSTYYADSVKGRFTISRDNAKNTVYLQMNSLKPEDTAVYYCAAVPYQSKYPRFGYWGQGTQVTVSS”, the “polyreactivity (PSR sort gate)” value is reported as “high polyreactivity”.

Take “QVQIVESGGGLVQAGGSLRLSCAASGRIFYAYAMGWYRQAPGKERELVAAISSGGSTKYADSVKGRFTISRDNAKNTVYLQMNSLKPEDTAVYYCNADATALSFGTLFDYWGQGTQVTVSS”: the “polyreactivity (PSR sort gate)” value was “low polyreactivity”.
